This sample holds only a part of the variants without activity.
How the values were obtained:
biotinyl-Trp-oxazolone = assay: self-aminoacylation, catalytic enhancement (BWO) (fold over background); higher = more active; k-Seq, kA / k0A0; sequences stand for … in GGGAAUGGAUCCACAUCUACGAAUUC…UUCACUGCAGACUUGACGAAGCUG
Method in brief: (§1)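 Working in 50 μL HEPES/NaCl/KCl/MgCl2/CaCl2 buffer with 5% acetonitrile at pH 6.9–7.0, mutagenized RNA pools (0.43 μM; 21-nt variable region) were reacted with 2–1250 μM of each biotinyl-aminoacyl-oxazolone for 90 minutes at room temperature. Streptavidin capture followed, with quantification by triplicate qPCR and Illumina sequencing. Catalytic enhancement is reported as median kA over the uncatalyzed rate, the low-activity peak of a bimodal Gaussian fit to the data.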

biotinyl-Val-oxazolone = assay: self-aminoacylation, catalytic enhancement (BVO) (fold over background); higher = more active; k-Seq, kA / k0A0; sequences stand for … in GGGAAUGGAUCCACAUCUACGAAUUC…UUCACUGCAGACUUGACGAAGCUG
Method in brief: as §1

biotinyl-Met-oxazolone = assay: self-aminoacylation, catalytic enhancement (BMO) (fold over background); higher = more active; k-Seq, kA / k0A0; sequences stand for … in GGGAAUGGAUCCACAUCUACGAAUUC…UUCACUGCAGACUUGACGAAGCUG
Method in brief: as §1

biotinyl-Leu-oxazolone = assay: self-aminoacylation, catalytic enhancement (BLO) (fold over background); higher = more active; k-Seq, kA / k0A0; sequences stand for … in GGGAAUGGAUCCACAUCUACGAAUUC…UUCACUGCAGACUUGACGAAGCUG
Method in brief: as §1

biotinyl-Phe-oxazolone = assay: self-aminoacylation, catalytic enhancement (BFO) (fold over background); higher = more active; k-Seq, kA / k0A0; sequences stand for … in GGGAAUGGAUCCACAUCUACGAAUUC…UUCACUGCAGACUUGACGAAGCUG
Method in brief: as §1

biotinyl-Ile-oxazolone = assay: self-aminoacylation, catalytic enhancement (BIO) (fold over background); higher = more active; k-Seq, kA / k0A0; sequences stand for … in GGGAAUGGAUCCACAUCUACGAAUUC…UUCACUGCAGACUUGACGAAGCUG
Method in brief: as §1

Row | Sequence | self-aminoacylation (biotinyl-Trp-oxazolone) | self-aminoacylation (biotinyl-Val-oxazolone) | self-aminoacylation (biotinyl-Met-oxazolone) | self-aminoacylation (biotinyl-Leu-oxazolone) | self-aminoacylation (biotinyl-Phe-oxazolone) | self-aminoacylation (biotinyl-Ile-oxazolone)
1 | CUAUUUCAUACAAUCGGUCUG [Fam1A.1 aminoacylation ribozyme variant] | 0.625 | 0.801 | 0.837 | 0.804 | 0.812 | 0.911
2 | CUACUUCAUACAAUCGGUUUG [Fam1A.1 aminoacylation ribozyme variant] | 0.425 | 0.541 | 0.538 | 0.602 | 0.619 | 0.64
3 | AUUACGCUGGUCAUCGACUGA [Fam2.1 aminoacylation ribozyme variant] | 1.65 | 1.24 | 0.889 | 1.73 | 0.691 | 1.48
4 | AAUACCCUGGGCAUCGAGUGA [Fam2.1 aminoacylation ribozyme variant] | 3.44 | 2.29 | 3.75 | 3.79 | 8.76 | 1.8
5 | AUUACUCUGGUCAACGAGUGA [Fam2.1 aminoacylation ribozyme variant] | 7.22 | 2.76 | 5 | 5.72 | 26.9 | 3.12
6 | UUUACCCAGGUCAUCGAGUGA [Fam2.1 aminoacylation ribozyme variant] | 6 | 3.55 | 5.36 | 5.06 | 21.9 | 3.49
7 | AAGUUUGCUAAUAGUCGAUAG [Fam3.1 aminoacylation ribozyme variant] | 0.829 | 0.846 | 0.781 | 0.805 | 1.42 | 0.824
8 | AUUCACGUAGGUCAUCGGGGG [Fam2.2 aminoacylation ribozyme variant] | 2.53 | 2.09 | 2.66 | 2.4 | 1.73 | 2.24
9 | AUUACCCUGGUCACCCAGUGA [Fam2.1 aminoacylation ribozyme variant] | 8.27 | 3.6 | 7.54 | 6.87 | 46.1 | 4.12
10 | AUUCCCCUAGGUCAUUGGGUG [Fam2.2 aminoacylation ribozyme variant] | 11.8 | 7.95 | 10.3 | 15.6 | 92.5 | 7.23
11 | AAGUUUGCUAAAAGUCGUAAG [Fam3.1 aminoacylation ribozyme variant] | 6.5 | 0.971 | 1.28 | 0.982 | 25.8 | 1.12
12 | UUUACCCUGUUCAUCGAGUGA [Fam2.1 aminoacylation ribozyme variant] | 5.71 | 2.56 | 4.11 | 3.91 | 5.37 | 2.21
13 | CCACACUUCAUGCAAACGGUC [Fam1B.1 aminoacylation ribozyme variant] | 0.512 | 0.774 | 0.556 | 0.507 | 0.769 | 0.809
14 | AAUACCCGGGUCAUCGAGUGA [Fam2.1 aminoacylation ribozyme variant] | 7.23 | 3.64 | 5.22 | 6.7 | 34.7 | 3.72
15 | AUUACCCGGAUCAUCGAGUGA [Fam2.1 aminoacylation ribozyme variant] | 7.26 | 4.04 | 7.04 | 7.92 | 38.4 | 3.43
16 | CCUCCCUUCAAGCAAUCGGUC [Fam1B.1 aminoacylation ribozyme variant] | 8.87 | 1.13 | 0.881 | 1.17 | 13.8 | 1.2
17 | AUUCACCUAGGGCAACGGGUG [Fam2.2 aminoacylation ribozyme variant] | 2.92 | 2.5 | 2.81 | 4.08 | 22.8 | 2.59
18 | AUCCACCUAGAUCAUCGGGUG [Fam2.2 aminoacylation ribozyme variant] | 4.45 | 3.26 | 3.25 | 4.88 | 23.2 | 3.37
19 | CUACUUCAAACAAUCGCUAUG [Fam1A.1 aminoacylation ribozyme variant] | 0.755 | 0.973 | 0.958 | 0.878 | 1.32 | 0.99
20 | AGUACCCUGGUCAUCGAGUGU [Fam2.1 aminoacylation ribozyme variant] | 11.7 | 5.27 | 14.2 | 13.6 | 29.9 | 5.14
21 | CCACACUUCAAGCAAUCGGCA [Fam1B.1 aminoacylation ribozyme variant] | 1.28 | 1.37 | 0.777 | 1.59 | 1.07 | 1.18
22 | ACUCACCUAGGUCCUCGGGUG [Fam2.2 aminoacylation ribozyme variant] | 8.03 | 4.46 | 5.36 | 5.78 | 37.1 | 5.2
23 | AUUACCCUAGUCAUCGAGUUA [Fam2.1 aminoacylation ribozyme variant] | 0.53 | 1.17 | 0.978 | 0.9 | 1.05 | 0.922
24 | AUUCCCCUAUGUCAUCGGGUG [Fam2.2 aminoacylation ribozyme variant] | 18.4 | 10.9 | 19.2 | 23.5 | 154 | 12.2
25 | CUACUUAAAACAAUCGGUCUU [Fam1A.1 aminoacylation ribozyme variant] | 0.524 | 0.706 | 0.799 | 0.617 | 0.533 | 0.742
26 | UUUACCCCGGUCAUCGAGUGA [Fam2.1 aminoacylation ribozyme variant] | 6.13 | 3.64 | 6.14 | 6.37 | 35.5 | 3.31

Row | Sequence | self-aminoacylation (biotinyl-Trp-oxazolone) | self-aminoacylation (biotinyl-Val-oxazolone) | self-aminoacylation (biotinyl-Met-oxazolone) | self-aminoacylation (biotinyl-Leu-oxazolone) | self-aminoacylation (biotinyl-Phe-oxazolone) | self-aminoacylation (biotinyl-Ile-oxazolone)
27 | CUACUUCGAACAAUCGGGCUG [Fam1A.1 aminoacylation ribozyme variant] | 1.57 | 1.54 | 1.02 | 1.24 | 0.645 | 1.3
28 | CCACACUUCAAGCAAUUGGAC [Fam1B.1 aminoacylation ribozyme variant] | 0.337 | 0.697 | 0.664 | 0.583 | 0.614 | 0.72
29 | AUAACCCUGGUCAUUGAGUGA [Fam2.1 aminoacylation ribozyme variant] | 10.2 | 3.82 | 8.67 | 8.57 | 36.7 | 3.89
30 | AGUCACCUGGGUCAUCGGGUG [Fam2.2 aminoacylation ribozyme variant] | 5.64 | 4.96 | 3.98 | 4.04 | 35.4 | 4.56
31 | AUUACCCUGGUCAUUGAGUGC [Fam2.1 aminoacylation ribozyme variant] | 0.798 | 0.993 | 0.995 | 1.15 | 1.08 | 0.962
32 | AUUACCCUGGUUAUCGUGUGA [Fam2.1 aminoacylation ribozyme variant] | 2.76 | 1.49 | 2.4 | 2.3 | 15 | 1.27
33 | CUAGUUCAAAUAAUCGGUCUG [Fam1A.1 aminoacylation ribozyme variant] | 2.87 | 0.793 | 0.872 | 0.879 | 3.78 | 0.901
34 | AUCUCCCUGGUCAUCGAGUGA [Fam2.1 aminoacylation ribozyme variant] | 10.2 | 4.7 | 9.05 | 9.06 | 27.2 | 4.57
35 | GCACACUUCAAGCAUUCGGUC [Fam1B.1 aminoacylation ribozyme variant] | 3.5 | 2.59 | 2.09 | 2.17 | 4.96 | 2.57
36 | CCACACUUCUGGCAAUCGGUC [Fam1B.1 aminoacylation ribozyme variant] | 0.873 | 1.49 | 1.26 | 1.54 | 1.18 | 1.23
37 | CCACACUUCAGGCAAUCGGUC [Fam1B.1 aminoacylation ribozyme variant] | 1.28 | 1.27 | 1.14 | 1.11 | 1.47 | 1.14
38 | CUUACCCUGGUCAUCGUGUGA [Fam2.1 aminoacylation ribozyme variant] | 2.98 | 2.11 | 2.8 | 2.87 | 11.1 | 1.79
39 | ACUCACCCAGGUCAUCGGGUG [Fam2.2 aminoacylation ribozyme variant] | 4.81 | 4.51 | 4.37 | 5.25 | 26.2 | 4
40 | CCACAAUUCAAGCAUUCGGUC [Fam1B.1 aminoacylation ribozyme variant] | 1.36 | 1.85 | 1.68 | 1.94 | 1.36 | 1.96
41 | GUUACCCGGGUCAUCGAGUGA [Fam2.1 aminoacylation ribozyme variant] | 8.97 | 4.77 | 8.11 | 9.84 | 62.8 | 4.5
42 | GAGUUUGCUAAUAGUCGCGAG [Fam3.1 aminoacylation ribozyme variant] | 2.17 | 1.38 | 1.63 | 1.47 | 1.76 | 1.55
43 | AUUCACCUAGGUCAUGGUGUG [Fam2.2 aminoacylation ribozyme variant] | 0.519 | 0.932 | 0.846 | 0.994 | 0.397 | 0.936
44 | AAUCACCUAGGUCAUCGGGGG [Fam2.2 aminoacylation ribozyme variant] | 3.96 | 2.77 | 3.21 | 3.66 | 10.6 | 2.91
45 | CUACUUCAAACAACCGGUCCG [Fam1A.1 aminoacylation ribozyme variant] | 1 | 1.01 | 0.703 | 0.962 | 0.643 | 0.993
46 | AUGCACCUAGGUCAUUGGGUG [Fam2.2 aminoacylation ribozyme variant] | 2.72 | 2.16 | 2.3 | 2.53 | 16.6 | 2.33
47 | AUUACCCUUGUCAUCGAGUAA [Fam2.1 aminoacylation ribozyme variant] | 1.53 | 1.13 | 1.36 | 1.22 | 0.935 | 1.19
48 | CUACUUCAGACAAACGGUCUG [Fam1A.1 aminoacylation ribozyme variant] | 0.573 | 0.863 | 0.962 | 0.908 | 0.868 | 0.89
49 | AUUCACCGUGGUCAUCGGGUG [Fam2.2 aminoacylation ribozyme variant] | 8.84 | 6.1 | 9.04 | 9.19 | 59.5 | 5.23
50 | AUUCACCCAGGUCAUCGCGUG [Fam2.2 aminoacylation ribozyme variant] | 13 | 8.43 | 16 | 19.4 | 123 | 8.24
51 | CUACUUCAACCUAUCGGUCUG [Fam1A.1 aminoacylation ribozyme variant] | 1.02 | 0.884 | 1.03 | 0.79 | 1.32 | 1.01

— the supplement of paper PMC9233669
